Earlier results as cited in publication PMC5321513.

Key:
[1] = target: 14-3-3σ (Homo sapiens) (UniProt P31947)
[2] = target: 14-3-3ζ (Homo sapiens) (UniProt P63104)
Sequence of 14-3-3ζ (Homo sapiens) (P63104 whole entry): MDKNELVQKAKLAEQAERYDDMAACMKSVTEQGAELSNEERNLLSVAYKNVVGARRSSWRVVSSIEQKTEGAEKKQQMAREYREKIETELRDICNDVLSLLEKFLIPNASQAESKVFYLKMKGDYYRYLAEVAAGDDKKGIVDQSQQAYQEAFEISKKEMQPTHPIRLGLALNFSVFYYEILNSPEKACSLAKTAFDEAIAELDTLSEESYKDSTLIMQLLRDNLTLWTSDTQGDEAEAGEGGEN

Sequence of 14-3-3σ (Homo sapiens) (P31947 whole entry): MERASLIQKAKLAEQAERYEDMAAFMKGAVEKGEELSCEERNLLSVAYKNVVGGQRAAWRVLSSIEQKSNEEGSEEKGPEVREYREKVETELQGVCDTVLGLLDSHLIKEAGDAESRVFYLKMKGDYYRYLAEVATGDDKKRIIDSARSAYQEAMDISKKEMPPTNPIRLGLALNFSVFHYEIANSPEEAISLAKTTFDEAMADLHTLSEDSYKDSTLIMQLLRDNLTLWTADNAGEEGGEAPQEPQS

Kd [1]	Kd [2]	Substance
16.3 µM		p53 phosphopeptide (from UniProt P04637)
	16.7 µM	C-RAF phosphopeptide (from UniProt P04049)
